Laboratory results as given in US20170355766A1 (Xencor, published 2017).

T1: human FcγRIIb receptor protein (R&D Systems) (human, UniProt P31994 46-217)
T1 construct: Analyte injected over antibodies captured on a protein A/G chip (Biacore); also called CD32b
T1 sequence (looked up): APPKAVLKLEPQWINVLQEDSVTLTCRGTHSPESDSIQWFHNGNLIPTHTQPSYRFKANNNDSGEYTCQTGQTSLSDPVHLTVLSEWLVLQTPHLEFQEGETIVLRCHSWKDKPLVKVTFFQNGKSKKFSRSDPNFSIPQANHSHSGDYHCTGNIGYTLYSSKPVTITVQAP


target: T1, human FcγRIIb receptor protein (R&D …); assay: SPR (Biacore)
Procedure: Variants were screened for receptor affinity using Biacore™ technology, also referred to as Biacore herein, a surface plasmon resonance (SPR) based technology for studying biomolecular interactions in real time. SPR measurements were performed using a Biacore 3000 instrument (Biacore, Piscataway, N.J.). A protein A/G (Pierce Biotechnology) CM5 biosensor chip (Biacore) was generated using a standard primary amine coupling protocol. All measurements were performed using HBS-EP buffer (10 mM HEPES pH 7.4, 0.15 M NaCl, 3 mM EDTA, 0.005% vol/vol surfactant P20, Biacore). Antibodies at 20 nM or 50 nM in HBS-EP buffer were immobilized on the protein A/G surface and FcγRs were injected. After each cycle, the surface was regenerated by injecting glycine buffer (10 mM, pH 1.5). Data were processed by zeroing time and response before the injection of FcγR and by subtracting appropriate nonspecific signals (response of reference channel and injection of running buffer). Kinetic analyses were performed by global fitting of binding data with a 1:1 Langmuir binding model using BIAevaluation software (Biacore).

| Fold FcγRIIb [fold] | Binder |
| --- | --- |
| 14.4 | S239D/H268D (antibody, human IgG1, kappa, HuAM4G7 IgG1 Fc variant) heavy: not shown light: DIVMTQSPATLSLSPGERATLSCRSSKSLQNVNGNTYLYWFQQKPGQSPQLLIYRMSNLNSGVPDRFSGSGSGTEFTLTISSLEPEDFAVYYCMQHLEYPITFGAGTKLEIKRTVAAPSVFIFPPSDEQLKSGTASVVCLLNNFYPREAKVQWKVDNALQSGNSQESVTEQDSKDSTYSLSSTLTLSKADYEKHKVYACEVTHQGLSSPVTKSFNRGEC |
| 53.2 | S239D/H268D/L328F/I332E (antibody, human IgG1, kappa, HuAM4G7 IgG1 Fc variant) heavy: EVQLVESGGGLVKPGGSLKLSCAASGYTFTSYVMHWVRQAPGKGLEWIGYINPYNDGTKYNEKFQGRVTISSDKSISTAYMELSSLRSEDTAMYYCARGTYYYGTRVFDYWGQGTLVTVSSASTKGPSVFPLAPSSKSTSGGTAALGCLVKDYFPEPVTVSWNSGALTSGVHTFPAVLQSSGLYSLSSVVTVPSSSLGTQTYICNVNHKPSNTKVDKKVEPKSCDKTHTCPPCPAPELLGGPDVFLFPPKPKDTLMISRTPEVTCVVVDVSDEDPEVKFNWYVDGVEVHNAKTKPREEQYNSTYRVVSVLTVLHQDWLNGKEYKCKVSNKAFPAPEEKTISKAKGQPREPQVYTLPPSREEMTKNQVSLTCLVKGFYPSDIAVEWESNGQPENNYKTTPPVLDSDGSFFLYSKLTVDKSRWQQGNVFSCSVMHEALHNHYTQKSLSLSPGK light: DIVMTQSPATLSLSPGERATLSCRSSKSLQNVNGNTYLYWFQQKPGQSPQLLIYRMSNLNSGVPDRFSGSGSGTEFTLTISSLEPEDFAVYYCMQHLEYPITFGAGTKLEIKRTVAAPSVFIFPPSDEQLKSGTASVVCLLNNFYPREAKVQWKVDNALQSGNSQESVTEQDSKDSTYSLSSTLTLSKADYEKHKVYACEVTHQGLSSPVTKSFNRGEC |
| 8.79 | S239D/H268D/L328F (antibody, human IgG1, kappa, HuAM4G7 IgG1 Fc variant) heavy: EVQLVESGGGLVKPGGSLKLSCAASGYTFTSYVMHWVRQAPGKGLEWIGYINPYNDGTKYNEKFQGRVTISSDKSISTAYMELSSLRSEDTAMYYCARGTYYYGTRVFDYWGQGTLVTVSSASTKGPSVFPLAPSSKSTSGGTAALGCLVKDYFPEPVTVSWNSGALTSGVHTFPAVLQSSGLYSLSSVVTVPSSSLGTQTYICNVNHKPSNTKVDKKVEPKSCDKTHTCPPCPAPELLGGPDVFLFPPKPKDTLMISRTPEVTCVVVDVSDEDPEVKFNWYVDGVEVHNAKTKPREEQYNSTYRVVSVLTVLHQDWLNGKEYKCKVSNKAFPAPIEKTISKAKGQPREPQVYTLPPSREEMTKNQVSLTCLVKGFYPSDIAVEWESNGQPENNYKTTPPVLDSDGSFFLYSKLTVDKSRWQQGNVFSCSVMHEALHNHYTQKSLSLSPGK light: DIVMTQSPATLSLSPGERATLSCRSSKSLQNVNGNTYLYWFQQKPGQSPQLLIYRMSNLNSGVPDRFSGSGSGTEFTLTISSLEPEDFAVYYCMQHLEYPITFGAGTKLEIKRTVAAPSVFIFPPSDEQLKSGTASVVCLLNNFYPREAKVQWKVDNALQSGNSQESVTEQDSKDSTYSLSSTLTLSKADYEKHKVYACEVTHQGLSSPVTKSFNRGEC |
| 51.1 | S239D/H268D/L328W (antibody, human IgG1, kappa, HuAM4G7 IgG1 Fc variant) heavy: EVQLVESGGGLVKPGGSLKLSCAASGYTFTSYVMHWVRQAPGKGLEWIGYINPYNDGTKYNEKFQGRVTISSDKSISTAYMELSSLRSEDTAMYYCARGTYYYGTRVFDYWGQGTLVTVSSASTKGPSVFPLAPSSKSTSGGTAALGCLVKDYFPEPVTVSWNSGALTSGVHTFPAVLQSSGLYSLSSVVTVPSSSLGTQTYICNVNHKPSNTKVDKKVEPKSCDKTHTCPPCPAPELLGGPDVFLFPPKPKDTLMISRTPEVTCVVVDVSDEDPEVKFNWYVDGVEVHNAKTKPREEQYNSTYRVVSVLTVLHQDWLNGKEYKCKVSNKAWPAPIEKTISKAKGQPREPQVYTLPPSREEMTKNQVSLTCLVKGFYPSDIAVEWESNGQPENNYKTTPPVLDSDGSFFLYSKLTVDKSRWQQGNVFSCSVMHEALHNHYTQKSLSLSPGK light: DIVMTQSPATLSLSPGERATLSCRSSKSLQNVNGNTYLYWFQQKPGQSPQLLIYRMSNLNSGVPDRFSGSGSGTEFTLTISSLEPEDFAVYYCMQHLEYPITFGAGTKLEIKRTVAAPSVFIFPPSDEQLKSGTASVVCLLNNFYPREAKVQWKVDNALQSGNSQESVTEQDSKDSTYSLSSTLTLSKADYEKHKVYACEVTHQGLSSPVTKSFNRGEC |
